From patent US20170343556A1 (VENTANA MEDICAL SYSTEMS, published 2017) come the findings set out here.

This assay concerns the target T1, human PD-L1 (Programmed death ligand-1) (human, UniProt Q9NZQ7 19-290).
T1 construct: whole, on cells; Endogenous PD-L1 in fixed tissue sections, detected by immunohistochemistry; No recombinant construct was used; also called B7-H1; PDCD1L1
Briefly: immunohistochemistry on FFPE tissue sections, OptiView DAB detection. As to the method: VENTANA PD-L1 (SP263) is a rabbit monoclonal primary antibody which binds to PD-L1 in paraffin-embedded tissue sections. The specific antibody can be localized using a haptenated secondary antibody followed by a multimer anti-hapten-HRP conjugate (OptiView DAB IHC Detection Kit, Cat. No. 760-700). The specific antibody-enzyme complex is then visualized with a precipitating enzyme reaction product. Each step is incubated for a precise time and temperature. At the end of each incubation step, the VENTANA BENCHMARK automated slide stainer washes the sections to stop the reaction and to remove unbound material that would hinder the desired reaction in subsequent steps. It also applies LCS (Cat. No. 650-210/Cat. No. 650-010), which minimizes evaporation of the aqueous reagents from the specimen slide. In addition to staining with VENTANA PD-L1 (SP263), a second slide is stained with a rabbit monoclonal negative control Ig (Cat. No. 790-4795) to assess background staining. [0113] IB. Specimen Preparation

T1 sequence (Q9NZQ7 19-290): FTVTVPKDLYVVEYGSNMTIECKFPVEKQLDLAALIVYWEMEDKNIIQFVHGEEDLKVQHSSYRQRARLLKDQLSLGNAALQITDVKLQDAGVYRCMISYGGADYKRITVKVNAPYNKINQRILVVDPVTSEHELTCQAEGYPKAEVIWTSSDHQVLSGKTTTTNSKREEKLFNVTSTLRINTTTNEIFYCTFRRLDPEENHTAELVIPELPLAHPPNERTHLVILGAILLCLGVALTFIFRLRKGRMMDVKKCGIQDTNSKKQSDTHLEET

B1: VENTANA PD-L1 (SP263) Rabbit Monoclonal Antibody (antibody, V domains shown)
VH: QSLEESGGRLVTPGTPLTLTCTASGFSLSNHAISWVRQAPGKGLEWIGTINSDTHTYYATWPKGRFTISKTSSTTVDLKMTSPTTEDTATYFCARRIFSSSNIWGPGTLVTVSS
VL: AIVMTQTSSPVSAVVGGTVAINCQASQSIYNNNWLSWFQQKPGQPPKLLIYLASTLASGVPSRFKGSGSGTQFTLTISDVVCDDAATYYCIGGESSNNDGIAFGGGTEVVVK
notes: Rabbit monoclonal primary antibody with a kappa light chain; also called SP263 antibody; anti-PD-L1
Take B1: the binding result is recorded as “binds”.
